# Measured values as given in US20070014790A1 (JAPAN SCIENCE AND TECHOLOGY AGENCY, published 2007).
# B1: GAL4 AD-ZHX1 fusion pAD-ZHX1 (430-564) (other, human, UniProt Q9UKY1 430-564, looked up, not shown: large carriers)
# chain: QVPAAQPTAETKPATAAVPTSQSVKHETALVNPDSFGIRAKKTKEQLAELKVSYLKNQFPHDSEIIRLMKITGLTKGEIKKWFSDTRYNQRNSKSNQCLHLNNDSSTTIIIDSSDETTESPTVGTAQPKQSWNPF
# notes: range 430-564
# B2: GAL4 AD-ZHX1 fusion pAD-ZHX1 (345-463) (other, human, UniProt Q9UKY1 345-463, looked up, not shown: large carriers)
# chain: PEEVEEARRKQFNGTVHTVPQTITVIPTHISTGSNGLPSILQTCQIVGQPGLVLTQVAGTNTLPVTAPIALTVAGVPSQNNIQKSQVPAAQPTAETKPATAAVPTSQSVKHETALVNPD
# notes: range 345-463
# B3: GAL4 AD-ZHX3 fusion pAD-ZHX3 (303-364) (other, not shown: large carriers)
# chain: LSSIPTYNAAMDSNSFLKNSFHKFPYPTKAELCYLTVVTKYPEEQLKIWFTAQRLKQGISWS
# notes: It is the HD1 region
# B4: GAL4 AD alone (pACT2) (other, yeast, UniProt P04386 768-881, looked up)
# chain: ANFNQSGNIADSSLSFTFTNSSNGPNLITTQTNSQALSQPIASSNVHDNFMNNEITASKIDDGNNSKPLSPGWTDQTAYNAFGITTGMFNTTTMDDVYNYLFDDEDTPPNPKKE
# notes: domain: AD; Control prey
# Target: T1, GAL4 DBD alone (pDBD) (yeast, UniProt P04386 1-147)
# T1 construct: Control bait
# T1 sequence (P04386 1-147 limits assumed): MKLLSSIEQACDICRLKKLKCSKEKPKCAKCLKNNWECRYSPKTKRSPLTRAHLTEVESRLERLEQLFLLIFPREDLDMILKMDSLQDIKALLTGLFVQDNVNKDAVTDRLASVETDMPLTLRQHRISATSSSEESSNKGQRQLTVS
# Assay: yeast two-hybrid, β-galactosidase activity
row,Binder,binding result
1,B1,no binding
2,B2,no binding
3,B3,no binding
4,B4,no binding
